Assay results from paper PMC6411775.
Several values for one entry are separate records, joined by “and”; a condition that tells them apart may be missing. Equal entries are not always repeated.

Biological target: full length human histone 3 lysine 4 demethylase KDM5B, His6 tag cleaved (human) (UniProt Q9UGL1)
Assay: SPR; KDM5B immobilised by amine coupling (490 RU and 975 RU); NCPs injected in eight concentrations (two-fold dilutions from 250 nM); 15 °C; 20 mM Hepes, 300 mM NaCl, 1 mM EDTA, 0.005% Tween 20, 1 mM DTT; steady state, 1:1 model; apparent

Sequence of UniProt Q9UGL1 (Q9UGL1 whole entry): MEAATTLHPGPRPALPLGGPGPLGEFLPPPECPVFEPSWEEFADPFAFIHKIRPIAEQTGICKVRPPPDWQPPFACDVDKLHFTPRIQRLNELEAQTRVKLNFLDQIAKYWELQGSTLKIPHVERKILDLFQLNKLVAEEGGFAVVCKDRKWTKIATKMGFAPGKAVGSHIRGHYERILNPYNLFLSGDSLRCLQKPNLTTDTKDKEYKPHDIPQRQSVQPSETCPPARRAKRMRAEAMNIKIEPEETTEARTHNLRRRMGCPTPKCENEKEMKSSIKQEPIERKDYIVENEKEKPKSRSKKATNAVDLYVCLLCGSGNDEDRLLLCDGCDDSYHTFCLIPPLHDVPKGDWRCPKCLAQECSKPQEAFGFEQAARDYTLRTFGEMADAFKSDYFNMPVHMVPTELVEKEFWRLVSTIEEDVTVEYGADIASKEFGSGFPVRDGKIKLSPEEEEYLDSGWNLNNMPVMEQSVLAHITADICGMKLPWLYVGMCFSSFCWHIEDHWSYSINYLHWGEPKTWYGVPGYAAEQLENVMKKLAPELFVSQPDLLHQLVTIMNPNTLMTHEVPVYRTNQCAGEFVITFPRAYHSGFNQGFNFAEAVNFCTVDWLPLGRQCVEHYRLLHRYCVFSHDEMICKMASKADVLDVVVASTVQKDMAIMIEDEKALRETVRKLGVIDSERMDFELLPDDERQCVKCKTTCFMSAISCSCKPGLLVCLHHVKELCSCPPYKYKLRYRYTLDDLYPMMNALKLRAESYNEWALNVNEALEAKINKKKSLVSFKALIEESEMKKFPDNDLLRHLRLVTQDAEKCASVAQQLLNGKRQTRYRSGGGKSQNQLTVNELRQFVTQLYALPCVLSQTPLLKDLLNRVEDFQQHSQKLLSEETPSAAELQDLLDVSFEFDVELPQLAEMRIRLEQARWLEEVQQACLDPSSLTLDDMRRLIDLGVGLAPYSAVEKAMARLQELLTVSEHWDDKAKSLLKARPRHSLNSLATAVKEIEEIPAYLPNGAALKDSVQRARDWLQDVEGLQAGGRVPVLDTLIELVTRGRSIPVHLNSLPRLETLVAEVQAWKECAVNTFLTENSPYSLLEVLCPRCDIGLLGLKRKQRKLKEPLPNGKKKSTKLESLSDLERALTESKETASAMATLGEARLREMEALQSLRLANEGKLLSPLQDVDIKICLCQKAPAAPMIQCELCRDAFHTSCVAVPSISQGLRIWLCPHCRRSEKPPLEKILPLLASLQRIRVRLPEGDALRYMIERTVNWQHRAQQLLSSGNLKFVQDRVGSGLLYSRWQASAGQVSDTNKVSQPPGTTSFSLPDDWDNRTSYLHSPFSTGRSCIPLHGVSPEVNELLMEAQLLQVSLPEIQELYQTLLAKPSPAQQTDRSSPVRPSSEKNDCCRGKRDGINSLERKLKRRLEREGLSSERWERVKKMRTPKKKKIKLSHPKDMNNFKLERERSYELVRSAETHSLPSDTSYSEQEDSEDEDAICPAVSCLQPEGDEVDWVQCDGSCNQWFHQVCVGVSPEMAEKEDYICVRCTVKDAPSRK

Nucleosome core particles (NCPs), recombinant Xenopus laevis histone octamer on the Widom 601 DNA (complex)
Kd: 20.3 nM and 27.7 nM
